Reference: patent US20240294650A1 (Alector, published 2024)
Positions count from the first letter of the chain named.

B1: MTK-222 (antibody, human IgG1, V domains shown)
VH: QVQLQQSGADLMKPGASVKLSCKATGYTFTGYWIEWVKQRPGHGLEWIGEILTGSGSSNYNEKFKGKATFTADSSSNTAFMQLSSLTTEDSAIYYCAGSYYSNSWFPYWGQGSLVTVSA
VL: DIVLTQSPVSLAVSLGQRATISCRASESVDSYGSSFMHWYQQKPGQPPKLLIYRASSLESGIPARFSGSGSRTDFTLTINPVETDDVATYYCQQSNEDPRTFGGGTKLEIK
B2: MTK-212 (antibody, human IgG1, V domains shown)
VH: QVQLQQSGPELVKPGASVKISCKASGYAFSSSWVNWVKQRPGKGLEWIGRIYPGDGDSNYNGNFKGKATLTADKSSNTAYLQLSSLTSEDSAVYFCARKSHFIYYTLDYWGQGTPVTVSS
VL: DIVMTQSHKFKSTSVGDRVSIACKASQDVGTSVAWYQQKPGKSPKLLIYWASSRHTGVPDRFTGSGSGTDFTLTISNVQSEDLTDYFCQQYSTYPYTFGGGTKLEIK
B3: MTK-202 (antibody, human IgG1, V domains shown)
VH: EVQLVESGGGLVKPGGSLKLSCAASGFTFSDFGMHWVRQVPEKGLEWVAFISGGSNTIYYTDTVKGRFTISRDNAKNTLFLQMTSLRSEDTAMYYCVRNGNSFAYWGQGTLVTVSA
VL: NIMMTQSPSSLAVSAGEKVTMNCKSSQSVLYSSNQKNYLAWYQQKPGQSPKLLIYWASTRESGVPDRFTGSGSGTDFTLTISNIQAEDLAIYYCHQYFFSWTFGGGTKLEIK
B4: MTK-204 (antibody, human IgG1, V domains shown)
VH: EVQLVESGGGLVKPGGSLKLSCAASGFTFSDYGMHWVRQAPEKGLEWVAYISSGTSTIYYEDTVKGRFTISRDNAKNTLFLQMTSLRSEDTAMYYCARGGLLFDYWGQGTTLTVSS
VL: B3 VL with N22S, Y55Q, G74E, S82R, N83S, I84V, I91V, F99S
B5: MTK-231 (antibody, human IgG1, V domains shown)
VH: DVQLQESGPGLVKPSQSLSLTCSVTGYSITSGYYWNWIRQFPGNKLEWMGYISYDGTYNYHPSLKNRISITRDTSKNQFFLTLNSVTTEDTATFYCTRGGGYWGQGTSVTVSS
VL: DVVMTQTPLSLPVSLGDQASISCRSSQSLVHSDGNTYLHWYLQKPGQSPKLLIYKVSNRFSGVPDRFSGSGSGTDFTLKISRLEAEDLGIYFCSQTTHIPLTFGSGTKLEIK
B6: MTK-207 (antibody, human IgG1, V domains shown)
VH: QVQLKESGPGLVAPSQSLSITCTVSGISLTSYGVSWVRQPPGKGLEWLGIIWGDGSTNYHSALISRLSISKDNSKSQVFLKLNSLQTDDTATYYCAKGRYGNYEDWYFDVWGTGTTVTVSS
VL: DIQMTQSPASLSASVGETVTITCRASGNIHNYLAWYQQKQGKSPQLLVYNAKTLAAGVPSRFSGSGSGTQYSLKINSLQPEDFGSYYCQHFWSIPLTFGAGTKLELK
B7: MTK-225 (antibody, human IgG1, V domains shown)
VH: EVQLQQSGPELVKPGASVKIFCKASGYTFTAYNMDWVKQSHGKSLEWIGDINPNNGGTIYNQKFKGKATLTVDKSSSTAYMELRSLTSEDTAVYYCARRRRYGNTYYWYFDVWGTGTTVTVSS
VL: DIQMTQSPASLSVSVGETVTITCRASENIYSSLAWYQQKQGKSPQLLVYAATNLADGVPSRFSGSGSGTQFYLKINGLQSEDFGSYYCQHFWGTSYTFGGGTKLEIK
B8: MTK-224 (antibody, human IgG1, V domains shown)
VH: QVQLQQPGAELVKPGASVKVSCKASGYTFTSYWMHWVKQRPGQGLEWIGRIHPFDSDTNYNQKFKGKATLTVDKSSSTAYMQLSSLTSEDSAVYYCSIAGFAYWGQGTLVTVSA
VL: DIVMTQSPATLSVTPGDRVSLSCRASQIISDYLNWYQQKSHESPRLLIKYASQSISGIPSRFSGSGSGSDFTLSINSVEPEDVGVYYCQNGHSFPLTFGAGTKLELK
B9: MTK-203 (antibody, human IgG1, V domains shown)
VH: QVQLQQPGAELVKPGASVKVSCKASGYTFTNYWMHWVKQRPGQGLEWIGRIHPFDTETNDNQKFKGKATLTVDKSSSTAYMQLSSLTSEDSAVYYCVIPANGGFAYWGQGTLVTVSA
VL: ETTVTQSPASLSVATGEKVTIRCITSTDIGDDMNWYQQKPGEPPKVLISEGNSLRPGVPSRFSSSGYGTDFVFTIENTLSEDVADYFCLQSDNLPLTFGSGTKLEIK
B10: MTK-209 (antibody, human IgG1, V domains shown)
VH: B8 VH with S31N, M34I, D57E, T58P, Q82H, S84T, S97A, I98L, G100S
VL: ETTVTQSPASLSMAMGEKATIRCITSTDIDDKMNWYQQKPGKPPKLLISAGNTLRPGVPSRFSSSGYGTDFVLTVENMLSEDVADYYCLQGGALPLTFGSGTKLEIK
B11: MTK-230 (antibody, human IgG1, V domains shown)
VH: EVQLQQSGPELVKPGASVRIPCKASGYTFSDYNMDWVKQSHGKSLEWIGNINPNIGGTIYSQKFKGKATLTVDKSSSTAYMELRSLTSEDTAVYYCARGDYGFASWGQGTLVTVSA
VL: DIVLTQSPASLTVSLGQRATISCRASRSVSTSGYSYMHWYQQKPGQPPKLLIYLASNLESGVPARFSGSRSGTDFTLNIHPVEEEDAATYYCQHSREYPFTFGSGTKLEIK

Biological target: T1, mouse MerTK overexpressed on CHO cells (mouse, UniProt Q60805 19-994)
T1 construct: whole, on cells; also called CHO-muMerTK OE
T1 sequence (looked up): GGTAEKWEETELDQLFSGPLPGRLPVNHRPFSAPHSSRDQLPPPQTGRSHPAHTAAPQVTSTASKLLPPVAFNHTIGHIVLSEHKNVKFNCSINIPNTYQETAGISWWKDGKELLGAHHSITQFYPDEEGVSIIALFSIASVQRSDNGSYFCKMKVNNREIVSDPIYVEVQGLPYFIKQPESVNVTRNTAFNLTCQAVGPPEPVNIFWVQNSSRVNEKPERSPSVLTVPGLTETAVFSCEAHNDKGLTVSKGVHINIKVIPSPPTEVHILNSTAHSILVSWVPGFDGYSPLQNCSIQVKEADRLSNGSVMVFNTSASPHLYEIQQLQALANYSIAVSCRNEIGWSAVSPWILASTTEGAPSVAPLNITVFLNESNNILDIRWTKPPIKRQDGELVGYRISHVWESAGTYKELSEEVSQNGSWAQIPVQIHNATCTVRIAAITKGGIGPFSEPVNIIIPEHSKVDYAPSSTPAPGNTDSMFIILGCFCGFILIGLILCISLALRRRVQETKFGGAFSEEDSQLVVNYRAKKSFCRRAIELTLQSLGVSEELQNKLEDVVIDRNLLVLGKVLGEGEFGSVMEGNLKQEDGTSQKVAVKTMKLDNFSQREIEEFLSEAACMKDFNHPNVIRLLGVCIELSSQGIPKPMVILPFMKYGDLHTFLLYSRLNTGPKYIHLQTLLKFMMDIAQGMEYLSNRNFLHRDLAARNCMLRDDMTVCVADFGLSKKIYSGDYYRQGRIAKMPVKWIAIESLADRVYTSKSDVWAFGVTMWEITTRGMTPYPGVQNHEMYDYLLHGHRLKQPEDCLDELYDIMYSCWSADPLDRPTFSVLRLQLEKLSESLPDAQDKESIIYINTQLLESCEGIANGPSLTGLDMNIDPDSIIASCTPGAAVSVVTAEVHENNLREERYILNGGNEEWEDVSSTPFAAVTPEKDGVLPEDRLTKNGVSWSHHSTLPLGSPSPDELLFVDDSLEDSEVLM
Assay: FACS, CHO-muMerTK OE cells, 10 ug/ml
Experimental: (§1) To determine whether recombinant anti-human MerTK antibodies of the present disclosure bind to human MerTK endogenously expressed on SK-MEL-5 cells and CHO cells overexpressing mouse MerTK (CHO-muMerTK OE cells), as compared to A375 and parental CHO cells as negative controls, the following experiments were performed. SK-MEL-5 cells, A375 cells, CHO-muMerTK OE cells, and CHO parental cells were plated at 100,000 cells/well. Anti-MerTK antibodies were added to the cells at 10 μg/ml. After 60 minutes on ice, cells were washed and then stained with PE-conjugated goat anti-human IgG antibody (Southern Biotech Cat #2040-09, Birmingham, AL) in the presence of Fc block solution on ice for 30 minutes, and then washed twice with cold FACS buffer (2% FBS in PBS). Mouse anti-human MerTK-PE conjugated (Biolegend, Clone 590H11G1E3) or anti-mouse MerTK-PE conjugated (ThermoFisher, Clone DS5MMER) antibodies were used as positive controls. Stained cells were acquired on a BD FACS Canto II cytometer and the mean fluorescence intensity (MFI) was calculated with FlowJo.

Row | MFI | Binder
1 | 4760 MFI | B1
2 | 12800 MFI | B2
3 | 4410 MFI | B3
4 | 713 MFI | B4
5 | 594 MFI | B5
6 | 279 MFI | B6
7 | 285 MFI | B7
8 | 616 MFI | B8
9 | 2080 MFI | B9
10 | 1220 MFI | B10
11 | 12400 MFI | B11

Biological target: T2, endogenous murine MerTK on bone marrow-derived macrophages (mouse, UniProt Q60805 19-994)
T2 construct: whole, on cells; MFI on MerTK KO BMDM subtracted; also called BMDM WT-KO
T2 sequence (looked up): T1 sequence (looked up)
Assay: FACS, mouse BMDM, WT minus MerTK KO
Experimental: as §1
To confirm anti-MerTK antibody binding to endogenous murine MerTK, bone marrow-derived macrophages (BMDM) were isolated from MerTK wild type (WT) and knockout (KO) mice (The Jackson Laboratory, Cat #011122) using standard protocols. Briefly, cells isolated from the bone marrow were plated in the presence of 50 ng/ml M-CSF (R&D Systems, Cat #416-ML) for seven days to allow for differentiation into macrophages. Cell staining, FACs, and MFI were performed and calculated as described above.

Row | MFI | Binder
12 | 3680 MFI | B1
13 | 9090 MFI | B2
14 | 4510 MFI | B3
15 | 602 MFI | B4
16 | 639 MFI | B5
17 | 989 MFI | B6
18 | 619 MFI | B7
19 | 1860 MFI | B8
20 | 2980 MFI | B9
21 | 813 MFI | B10
22 | 9120 MFI | B11
